Data reported in US20150064134A1.

What was measured:
Experiment in all cases: cell-based or functional assay
TrkB (h) (human) = TrkB (h) (human) (UniProt Q16620)
PAK5(h) (human) = PAK5(h) (human) (UniProt Q9P286)
AMPKα2(h) (human) = AMPKα2(h) (human) (UniProt P54646)
Pim-2(h) (human) = Pim-2(h) (human) (UniProt Q9P1W9)
CHK2(h) (human) = CHK2(h) (human) (UniProt O96017)
GSK3α(h) (human) = GSK3α(h) (human) (UniProt P49840)
BrSK1(h) (human) = target: T1, BrSK1(h) (human) (UniProt Q8TDC3)
T1 sequence (looked up): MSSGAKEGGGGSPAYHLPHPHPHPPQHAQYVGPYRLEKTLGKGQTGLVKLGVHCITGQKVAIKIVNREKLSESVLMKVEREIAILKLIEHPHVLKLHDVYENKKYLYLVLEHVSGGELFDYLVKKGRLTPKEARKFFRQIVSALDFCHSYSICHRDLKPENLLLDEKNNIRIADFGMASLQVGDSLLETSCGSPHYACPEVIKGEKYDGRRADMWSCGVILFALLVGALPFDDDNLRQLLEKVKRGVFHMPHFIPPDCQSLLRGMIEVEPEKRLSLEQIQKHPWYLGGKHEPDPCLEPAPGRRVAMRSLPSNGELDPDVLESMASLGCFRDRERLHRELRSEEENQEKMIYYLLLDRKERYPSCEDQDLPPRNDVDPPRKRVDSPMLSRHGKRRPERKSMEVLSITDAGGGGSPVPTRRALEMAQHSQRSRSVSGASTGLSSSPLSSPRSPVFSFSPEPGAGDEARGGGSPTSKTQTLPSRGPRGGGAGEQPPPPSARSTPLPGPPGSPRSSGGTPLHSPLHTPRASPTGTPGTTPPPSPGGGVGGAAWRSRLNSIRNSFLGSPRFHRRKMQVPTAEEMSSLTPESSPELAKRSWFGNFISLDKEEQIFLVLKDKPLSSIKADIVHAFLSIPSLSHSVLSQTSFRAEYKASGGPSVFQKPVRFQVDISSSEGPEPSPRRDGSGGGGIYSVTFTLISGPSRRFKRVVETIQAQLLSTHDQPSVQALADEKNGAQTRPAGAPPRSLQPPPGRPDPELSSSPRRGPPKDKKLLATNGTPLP

Abl(T315I)(h) (human) = Abl(T315I)(h) (human) (UniProt P00519)
ZAP-70(h) (human) = ZAP-70(h) (human) (UniProt P43403)
TSSK2(h) (human) = target: T2, TSSK2(h) (human) (UniProt Q96PF2)
T2 sequence (looked up): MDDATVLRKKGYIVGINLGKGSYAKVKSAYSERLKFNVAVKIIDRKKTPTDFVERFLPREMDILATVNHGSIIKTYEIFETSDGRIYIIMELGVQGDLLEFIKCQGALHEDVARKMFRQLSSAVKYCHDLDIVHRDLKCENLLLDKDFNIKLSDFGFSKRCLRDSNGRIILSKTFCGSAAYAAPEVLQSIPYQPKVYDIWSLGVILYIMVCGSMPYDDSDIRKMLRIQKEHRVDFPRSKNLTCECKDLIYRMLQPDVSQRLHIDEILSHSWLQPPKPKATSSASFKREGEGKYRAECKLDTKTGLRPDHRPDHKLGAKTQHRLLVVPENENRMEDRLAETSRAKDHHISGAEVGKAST

MAPKAP-K3(h) (human) = MAPKAP-K3(h) (human) (UniProt Q16644)
ROCK-II(h) (human) = ROCK-II(h) (human) (UniProt O75116)
PDGFRα(V561D)(h) (human) = PDGFRα(V561D)(h) (human) (UniProt P16234)
cKit(D816V)(h) (human) = cKit(D816V)(h) (human) (UniProt P10721)
MINK(h) (human) = MINK(h) (human) (UniProt Q8N4C8)
TLK2(h) (human) = TLK2(h) (human) (UniProt Q86UE8)
Bmx(h) (human) = target: T3, Bmx(h) (human) (UniProt P51813)
T3 sequence (looked up): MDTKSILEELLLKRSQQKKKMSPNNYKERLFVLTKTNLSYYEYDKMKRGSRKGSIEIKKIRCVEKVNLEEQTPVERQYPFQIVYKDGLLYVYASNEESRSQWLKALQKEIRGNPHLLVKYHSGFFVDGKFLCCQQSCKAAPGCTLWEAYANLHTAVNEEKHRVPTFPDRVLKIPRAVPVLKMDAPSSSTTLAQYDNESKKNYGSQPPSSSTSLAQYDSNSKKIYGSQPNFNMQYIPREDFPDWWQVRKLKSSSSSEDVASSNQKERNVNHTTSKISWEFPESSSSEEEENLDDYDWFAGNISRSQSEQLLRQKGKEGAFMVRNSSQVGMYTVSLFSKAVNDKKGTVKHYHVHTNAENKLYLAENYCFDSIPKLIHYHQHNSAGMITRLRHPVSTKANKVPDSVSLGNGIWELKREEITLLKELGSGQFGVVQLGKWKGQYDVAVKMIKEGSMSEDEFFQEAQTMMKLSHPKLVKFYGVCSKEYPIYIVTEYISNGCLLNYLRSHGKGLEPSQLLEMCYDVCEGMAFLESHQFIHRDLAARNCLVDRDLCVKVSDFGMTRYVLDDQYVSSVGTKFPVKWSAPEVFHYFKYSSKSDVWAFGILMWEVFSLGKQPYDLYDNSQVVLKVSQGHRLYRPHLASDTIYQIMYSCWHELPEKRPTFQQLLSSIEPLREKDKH

SRPK2(h) (human) = SRPK2(h) (human) (UniProt P78362)
Snk(h) (human) = Snk(h) (human) (UniProt Q9NYY3)
EGFR(L858R)(h) (human) = EGFR(L858R)(h) (human) (UniProt P00533)

Sequence of cKit(D816V)(h) (human) (P10721 544-976 D816V): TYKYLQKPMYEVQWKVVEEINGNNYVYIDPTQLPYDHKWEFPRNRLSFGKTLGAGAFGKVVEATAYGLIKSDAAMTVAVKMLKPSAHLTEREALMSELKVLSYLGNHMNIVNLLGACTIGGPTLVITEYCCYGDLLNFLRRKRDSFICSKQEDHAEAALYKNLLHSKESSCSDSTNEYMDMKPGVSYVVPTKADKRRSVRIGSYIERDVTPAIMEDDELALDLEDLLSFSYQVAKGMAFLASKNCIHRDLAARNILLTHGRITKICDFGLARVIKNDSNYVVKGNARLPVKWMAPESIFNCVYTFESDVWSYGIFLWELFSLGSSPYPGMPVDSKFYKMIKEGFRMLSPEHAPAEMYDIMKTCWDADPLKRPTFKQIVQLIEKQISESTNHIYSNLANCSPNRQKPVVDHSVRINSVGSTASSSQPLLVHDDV
Sequence of ZAP-70(h) (human) (P43403 whole entry): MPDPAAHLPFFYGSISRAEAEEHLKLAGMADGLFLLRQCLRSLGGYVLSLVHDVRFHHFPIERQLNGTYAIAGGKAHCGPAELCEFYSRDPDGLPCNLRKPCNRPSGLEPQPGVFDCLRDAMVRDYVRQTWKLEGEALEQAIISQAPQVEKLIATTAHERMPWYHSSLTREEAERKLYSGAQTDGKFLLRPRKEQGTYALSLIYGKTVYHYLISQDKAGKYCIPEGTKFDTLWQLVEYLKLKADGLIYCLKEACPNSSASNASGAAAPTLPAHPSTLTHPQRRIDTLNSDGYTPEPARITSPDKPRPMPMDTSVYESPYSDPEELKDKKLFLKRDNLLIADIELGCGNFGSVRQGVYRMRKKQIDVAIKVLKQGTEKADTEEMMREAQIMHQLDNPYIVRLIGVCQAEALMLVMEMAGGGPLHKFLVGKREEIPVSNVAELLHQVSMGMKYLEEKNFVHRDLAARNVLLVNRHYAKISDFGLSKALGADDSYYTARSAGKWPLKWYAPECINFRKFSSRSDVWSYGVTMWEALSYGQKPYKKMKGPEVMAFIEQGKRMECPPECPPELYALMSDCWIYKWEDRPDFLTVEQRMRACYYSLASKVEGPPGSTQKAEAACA
Sequence of PDGFRα(V561D)(h) (human) (P16234 550-1089 V561D limits assumed): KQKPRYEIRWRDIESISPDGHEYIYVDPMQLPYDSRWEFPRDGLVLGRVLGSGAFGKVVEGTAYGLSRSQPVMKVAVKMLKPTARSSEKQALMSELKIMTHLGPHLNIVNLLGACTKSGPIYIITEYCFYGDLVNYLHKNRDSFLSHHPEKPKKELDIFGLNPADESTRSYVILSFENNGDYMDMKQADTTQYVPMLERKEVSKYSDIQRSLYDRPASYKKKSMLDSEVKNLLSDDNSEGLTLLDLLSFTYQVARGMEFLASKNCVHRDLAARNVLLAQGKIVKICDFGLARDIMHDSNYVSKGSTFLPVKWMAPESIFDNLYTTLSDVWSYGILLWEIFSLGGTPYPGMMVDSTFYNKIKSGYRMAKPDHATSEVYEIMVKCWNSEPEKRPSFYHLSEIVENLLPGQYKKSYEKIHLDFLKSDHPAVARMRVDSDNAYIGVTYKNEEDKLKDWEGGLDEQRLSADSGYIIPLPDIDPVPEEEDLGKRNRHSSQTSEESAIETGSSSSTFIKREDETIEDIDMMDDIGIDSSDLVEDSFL
Sequence of CHK2(h) (human) (O96017 5-543 limits assumed): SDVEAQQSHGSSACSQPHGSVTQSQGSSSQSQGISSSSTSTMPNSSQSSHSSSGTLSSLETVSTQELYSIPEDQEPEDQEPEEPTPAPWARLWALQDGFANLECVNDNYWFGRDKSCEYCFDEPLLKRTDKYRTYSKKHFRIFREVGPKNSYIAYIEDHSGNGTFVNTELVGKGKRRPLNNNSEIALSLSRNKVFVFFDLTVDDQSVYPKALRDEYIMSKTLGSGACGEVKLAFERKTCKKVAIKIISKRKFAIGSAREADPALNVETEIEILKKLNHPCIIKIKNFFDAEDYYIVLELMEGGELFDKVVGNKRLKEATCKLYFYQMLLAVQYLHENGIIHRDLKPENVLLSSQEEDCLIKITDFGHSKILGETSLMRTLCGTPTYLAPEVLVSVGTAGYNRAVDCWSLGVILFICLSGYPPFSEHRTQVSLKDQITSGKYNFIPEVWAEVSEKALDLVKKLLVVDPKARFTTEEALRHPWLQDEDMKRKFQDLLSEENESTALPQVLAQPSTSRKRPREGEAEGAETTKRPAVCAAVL
Sequence of Abl(T315I)(h) (human) (P00519 27-1130 T315I limits assumed): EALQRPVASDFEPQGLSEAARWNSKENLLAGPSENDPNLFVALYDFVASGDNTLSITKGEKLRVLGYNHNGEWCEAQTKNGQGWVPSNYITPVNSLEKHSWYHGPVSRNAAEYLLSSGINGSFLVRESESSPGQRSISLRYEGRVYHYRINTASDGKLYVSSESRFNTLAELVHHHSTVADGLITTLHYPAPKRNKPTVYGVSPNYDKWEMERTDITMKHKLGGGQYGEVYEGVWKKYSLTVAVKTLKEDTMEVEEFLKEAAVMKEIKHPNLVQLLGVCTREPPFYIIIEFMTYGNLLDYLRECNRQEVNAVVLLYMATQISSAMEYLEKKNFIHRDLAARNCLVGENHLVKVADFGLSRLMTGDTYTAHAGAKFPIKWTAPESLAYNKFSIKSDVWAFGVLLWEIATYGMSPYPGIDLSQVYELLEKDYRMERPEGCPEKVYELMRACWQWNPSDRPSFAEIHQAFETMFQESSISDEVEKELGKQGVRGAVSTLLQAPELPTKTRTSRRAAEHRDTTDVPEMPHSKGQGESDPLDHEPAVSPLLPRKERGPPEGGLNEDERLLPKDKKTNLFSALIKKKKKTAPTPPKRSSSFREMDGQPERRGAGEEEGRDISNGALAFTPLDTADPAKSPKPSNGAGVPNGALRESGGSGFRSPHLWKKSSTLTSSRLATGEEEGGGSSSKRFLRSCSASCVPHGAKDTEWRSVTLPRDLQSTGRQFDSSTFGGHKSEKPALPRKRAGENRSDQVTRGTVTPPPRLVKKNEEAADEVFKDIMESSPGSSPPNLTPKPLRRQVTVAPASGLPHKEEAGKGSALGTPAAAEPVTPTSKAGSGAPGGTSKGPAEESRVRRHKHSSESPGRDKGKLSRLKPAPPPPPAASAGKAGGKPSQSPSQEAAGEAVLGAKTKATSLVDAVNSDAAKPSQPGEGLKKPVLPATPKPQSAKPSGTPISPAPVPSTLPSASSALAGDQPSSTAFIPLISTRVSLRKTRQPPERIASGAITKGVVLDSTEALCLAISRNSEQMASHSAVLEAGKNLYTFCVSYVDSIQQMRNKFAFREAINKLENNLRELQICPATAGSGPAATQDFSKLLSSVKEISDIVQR

## MMI-0300 (peptide)
TrkB (h) (human)
  % activity at 100 µM: 5%
PAK5(h) (human)
  % activity at 100 µM: 110%
AMPKα2(h) (human)
  % activity at 100 µM: 54%
Pim-2(h) (human)
  % activity at 100 µM: 76%
CHK2(h) (human)
  % activity at 100 µM: 66%
GSK3α(h) (human)
  % activity at 100 µM: 157%
BrSK1(h) (human)
  % activity at 100 µM: 67%
Abl(T315I)(h) (human)
  % activity at 100 µM: 97%
ZAP-70(h) (human)
  % activity at 100 µM: 75%
TSSK2(h) (human)
  % activity at 100 µM: 98%
MAPKAP-K3(h) (human)
  % activity at 100 µM: 3%
ROCK-II(h) (human)
  % activity at 100 µM: 74%
PDGFRα(V561D)(h) (human)
  % activity at 100 µM: 82%
cKit(D816V)(h) (human)
  % activity at 100 µM: 60%
MINK(h) (human)
  % activity at 100 µM: 48%

## MMI-0400 (peptide)
TrkB (h) (human)
  % activity at 100 µM: 8%
AMPKα2(h) (human)
  % activity at 100 µM: 58%
TLK2(h) (human)
  % activity at 100 µM: 151%
Pim-2(h) (human)
  % activity at 100 µM: 92%
CHK2(h) (human)
  % activity at 100 µM: 54%
Bmx(h) (human)
  % activity at 100 µM: 26%
GSK3α(h) (human)
  % activity at 100 µM: 164%
BrSK1(h) (human)
  % activity at 100 µM: 76%
SRPK2(h) (human)
  % activity at 100 µM: 97%
ZAP-70(h) (human)
  % activity at 100 µM: 33%
TSSK2(h) (human)
  % activity at 100 µM: 94%
MAPKAP-K3(h) (human)
  % activity at 100 µM: 7%
ROCK-II(h) (human)
  % activity at 100 µM: 77%
PDGFRα(V561D)(h) (human)
  % activity at 100 µM: 100%
cKit(D816V)(h) (human)
  % activity at 100 µM: 35%
MINK(h) (human)
  % activity at 100 µM: 52%
Snk(h) (human)
  % activity at 100 µM: 131%
EGFR(L858R)(h) (human)
  % activity at 100 µM: 52%

## MMI-0500 (peptide)
TrkB (h) (human)
  % activity at 100 µM: 12%
PAK5(h) (human)
  % activity at 100 µM: 125%
AMPKα2(h) (human)
  % activity at 100 µM: 9%
TLK2(h) (human)
  % activity at 100 µM: 133%
Pim-2(h) (human)
  % activity at 100 µM: 46%
CHK2(h) (human)
  % activity at 100 µM: 13%
Bmx(h) (human)
  % activity at 100 µM: 45%
GSK3α(h) (human)
  % activity at 100 µM: 175%
BrSK1(h) (human)
  % activity at 100 µM: 72%
Abl(T315I)(h) (human)
  % activity at 100 µM: 16%
SRPK2(h) (human)
  % activity at 100 µM: 80%
ZAP-70(h) (human)
  % activity at 100 µM: 1%
TSSK2(h) (human)
  % activity at 100 µM: 92%
MAPKAP-K3(h) (human)
  % activity at 100 µM: 9%
ROCK-II(h) (human)
  % activity at 100 µM: 2%
PDGFRα(V561D)(h) (human)
  % activity at 100 µM: 146%
cKit(D816V)(h) (human)
  % activity at 100 µM: 30%
MINK(h) (human)
  % activity at 100 µM: 5%
Snk(h) (human)
  % activity at 100 µM: 122%
EGFR(L858R)(h) (human)
  % activity at 100 µM: 26%
